In patent US20250122508A1 (K2B THERAPEUTICS, published 2025):

B1: vSIRPα labeled with Cy5.5 (receptor)
chain: EEELQIIQPDKSVLVAAGETATLRCTITSLFPVGPIQWFRGAGPGRVLIYNQRQGPFPRVTTVSDTTKRNNMDFSIRIGNITPADAGTYYCIKFRKGSPDDVEFKSGAGTELSVRAKP
modifications: Cy5.5 label (site not stated)
notes: also called Cy5.5-labeled vSIRPα
B2: mouse CD47 on the surface of mouse red blood cells and CT26.CL25 cells (receptor, UniProt Q61735 19-303, looked up)
chain: QLLFSNVNSIEFTSCNETVVIPCIVRNVEAQSTEEMFVKWKLNKSYIFIYDGNKNSTTTDQNFTSAKISVSDLINGIASLKMDKRDAMVGNYTCEVTELSREGKTVIELKNRTVSWFSPNEKILIVIFPILAILLFWGKFGILTLKYKSSHTNKRIILLLVAGLVLTVIVVVGAILLIPGEKPVKNASGLGLIVISTGILILLQYNVFMTAFGMTSFTIAILITQVLGYVLALVGLCLCIMACEPVHGPLLISGLGIIALAELLGLVYMKFVASNQRTIQPPRNR
notes: whole, on cells; also called CD47 present on the surface of the CT26.CL25 cells

How the values were obtained:
[1] = target: B2; assay: flow cytometry of CT26.CL25 cells after incubation with mouse RBC loaded with 200 pmol labeled vSIRPα
Experimental: (§1) Each cell line, grown independently in a cell culture dish, was detached from the dish with trypsin-EDTA. The cells from each dish were then washed with DPBS, counted, and diluted to 10⁵ cells/100 μl PBS. 4 μl of the FAM-vSIRPα-siRNA/RBC resuspension (totaling 10³ RBC and 100 pmol of the vSIRPα-siRNA) was mixed, independently, with each 100 μl dilution of CT26.CL25 cells and CaCO2 cells. Each mixture was incubated for 30 minutes at room temperature (20-25° C.).
(§2) vSIRPα labeled with Cy5.5 was tested for its ability to be transferred from RBC to CD47 present on the surface of CT26.CL25 cells. Experiments were carried out as in Example 2, except that 200 pmol of the labeled vSIRPα, rather than 500 pmol of conjugate, was incubated with the RBC.

[2] = target: T1, Murine TSP-1 (7859-TH, R&D Systems) labeled with Cy5.5 (murine, UniProt P35441 19-1170, Cy5.5 label (site not stated)); assay: flow cytometry of CT26.CL25 cells after incubation with mouse RBC loaded with 5 µg labeled murine TSP-1
T1 construct: also called Cy5.5-labeled murine thrombospondin-1; Cy5.5 labeled TSP-1
T1 sequence (P35441 19-1170 limits assumed): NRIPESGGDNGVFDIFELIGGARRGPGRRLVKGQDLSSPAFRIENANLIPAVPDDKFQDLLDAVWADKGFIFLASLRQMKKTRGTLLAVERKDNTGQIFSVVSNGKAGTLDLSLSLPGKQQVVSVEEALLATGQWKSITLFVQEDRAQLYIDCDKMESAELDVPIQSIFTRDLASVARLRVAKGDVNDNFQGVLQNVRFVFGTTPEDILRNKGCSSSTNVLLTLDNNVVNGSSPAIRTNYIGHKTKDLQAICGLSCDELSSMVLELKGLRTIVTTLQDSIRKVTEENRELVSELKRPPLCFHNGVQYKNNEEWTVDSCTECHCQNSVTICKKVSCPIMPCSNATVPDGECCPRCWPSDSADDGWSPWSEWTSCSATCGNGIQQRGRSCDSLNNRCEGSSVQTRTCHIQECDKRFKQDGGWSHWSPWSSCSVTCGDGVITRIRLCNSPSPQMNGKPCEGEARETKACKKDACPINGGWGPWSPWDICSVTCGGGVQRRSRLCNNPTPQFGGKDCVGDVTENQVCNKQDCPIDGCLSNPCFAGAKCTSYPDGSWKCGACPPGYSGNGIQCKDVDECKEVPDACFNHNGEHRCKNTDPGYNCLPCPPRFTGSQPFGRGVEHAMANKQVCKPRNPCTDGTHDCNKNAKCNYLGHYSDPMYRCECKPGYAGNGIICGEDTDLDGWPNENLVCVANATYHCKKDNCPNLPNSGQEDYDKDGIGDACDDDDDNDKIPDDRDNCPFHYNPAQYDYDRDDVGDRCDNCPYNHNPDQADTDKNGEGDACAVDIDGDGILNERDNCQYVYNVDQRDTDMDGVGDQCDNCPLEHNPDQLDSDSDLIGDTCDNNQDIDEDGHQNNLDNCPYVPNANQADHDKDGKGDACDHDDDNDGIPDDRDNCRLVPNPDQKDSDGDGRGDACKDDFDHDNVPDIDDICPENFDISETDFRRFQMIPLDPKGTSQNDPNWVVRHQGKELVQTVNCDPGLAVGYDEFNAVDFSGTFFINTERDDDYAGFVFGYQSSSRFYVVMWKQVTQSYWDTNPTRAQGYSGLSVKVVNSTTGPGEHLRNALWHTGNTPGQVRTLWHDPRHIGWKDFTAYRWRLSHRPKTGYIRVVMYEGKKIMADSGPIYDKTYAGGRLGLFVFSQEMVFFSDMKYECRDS
Experimental: as §1
as §2, with “Murine TSP-1 (7859-TH, R&D Systems) labeled” for “vSIRPα labeled”, “that 5 μg” for “that 200 pmol”, “of Cy5.5” for “of the”, “labeled TSP-1,” for “labeled vSIRPα,”

Binder	binding result [1]	binding result [2]
B1	binds	–
B2	–	binds
